The data set can be described thus: label from the status in PepcDB records.

For “VSDMNGLGFKPFDLVIPFAVRKGEITGEVHMPSGKTATPEIVDNKDGTVTVRYAPTEVGLHEMHIKYMGSHIPESPLQFYVNYPNSGS”, the protein production result is given as “not failed”.

Consider “VSDPLHVTFVCTGNICRSPMAEKMFAQQLRHRGLGDAVRVTSAGTGNWHVGSCADERAAGVLRAHGYPTDHRAAQVGTEHLAADLLVALDRNHARLLRQLGVEAARVRMLRSFDPRSGTHALDVEDPYYGDHSDFEEVFAVIESALPGLHDWVDERLARNGPS”, for which the protein production result is reported as “not failed”.

For the sequence “VSKAVQYMAKRRIGALIVFEKETGLQDYIETGIAMDSNISQELLINVFIPNTPLHDGAMIIQGTKIAAAASYLPLSDSPKISKSLGTRHRAAVGISEVSDAFTVIVSEETGDISVTFDGKLRRDISNEIFEELLAEHWFGTRFQKKGVK”, the protein production entry is “failed”.

For “VSKAVQYMAKRRIGALIVFEKETGLQDYIETGIPMNSDISQELLTNVFIPNTPLHDGAMIIQGSKIAVAASYLPLSDSVKISKSLGTRHRAAVGISEVSDAFTVVVSEETGDISVTFDGKLRRDISKDVFEELLAEHWFGAHFQKKGVNS”, the protein production result was “not failed”.

“VSRDENSWLIDGATPLEEVTRVLDIAYFPDEENYETISGFMMYMLRKIPKKTDSVVYGKYKFEVIDTENFKIDQILVSLVKEQE”: the protein production entry is on record as “not failed”.

Turning to “VVIQFYEERLTWHTGSGNGNGNTNSVNLGSSGGLGSVGGSGAGDDTAPGSVGTTGGGSNIDGGDEEDPEPASPIGSINQDENIKPDESSELDNGQPDADD”, the protein production entry is recorded as “failed”.

Take “VVNDEWLSILGLSRQDITNHISDWDGLIHPNDDQFMKKTVQTHILSGKNYVVEFRMKHADGRWVWIQGSGSVIEYDENTHEPVRLCGTHQDITVRK”: the protein production entry is given as “failed”.

As for “VWRPKSVSRDDVMVTEYGAVTSERPLPAGTTYSATSVTPPDDPEVLRTSGRDYPADIESRYTGVPASTSAQVGPFTDRLTEDSDSPYQTAATIEQWLEANKNYSLNVSQPPEDDVASEFIFQMDKGYCEYFATSMVVMLRSQDIPARYVVGYSTGERTGQNQYTVRGMNAHAWVEVYFEGVGWVKFDPTPGQ”, the protein production entry is given as “failed”.

For “WIAQIHKTKTNYFLNLLKEGKIPLRPGIKRLLDELRKNNIKIAIATTTTYENVSTLLQCTLGDSALEWFDVIGAGDIVSKKKPAPDIYEWVLNQLNLPAEACIAIEDSENGLKSATAAGIKTIITISEYTREQNFSYAALVLEDLESTDHTHQIAAQSFDKPLSVQTLSDLLN”, the protein production entry was “failed”.

As for “WILASTTEGAPSVAPLNVTVFLNESSDNVDIRWMKPPTKQQDGELVGYRISHVWQSAGISKELLEEVGQNGSRARISVQVHNATCTVRIAAVTRGGVGPFSDPVKIFIPAH”, the protein production entry is “not failed”.

“WRKDIVLPKDQAKGVRPYNPKFKDSEYFSRYNALINDERLIEFAKKNNYKITFFPHPDIQQQIVDFEKHDYVEFADYNSSYQMLFNSSNIMITDFSSVAFDFAYEKKPVIYYQYEKSYHFKLDYYDYKKMGFGDVLENHNSLVDKVIYYMKNNSRMEDKYRKRVDNFFAYTDKNNRNRIYNAILE”: the protein production entry is recorded as “not failed”.

In the case of “YDDEDYQAEQDRREEQRRAAIAQTGVEVIPVHGVLVSRGSHLNACETMTSYEGLRAALNKAITDPMVEHIVLDIDSPGGSAVGAFELAADIRAATKIKPITGLVNFMAYSGGYLIASACTEVVVSLTSGVGSIGVVASHMDRSKMIEGMGVKVTTVFAGAHKNDLSPNEPITEQSLQVLNEVVQESYQLFTTHVAEYRGRDVADIIATEAACYRGSSAIAIGLADRLESPQ”, the protein production entry is “failed”.

In the case of “YDLLCRERDNFRILVAITNAVLSRLDIDELVSEVAKEIHHYFNIDAISIVLRSHRKNKLNIYSTHYLDEHHPAHEQSEVDEAGTLTERVFKSKEMLLINLNERDPLAPYERMLFDTWGNQIQTLCLLPLMSGKTMLGVLKLAQCEEKVFTTANLKLLRQIAERVAIAVDNALAYQEIHRLKER”, the protein production result is listed as “failed”.

For the sequence “YKGQYFTPPHIAQAMAAMTLMDCHSIIEKRGFMKLQEPTCGSGVMIIGSYNHLRQEHFNPQQQLWVRAQDLDFTTAMMCYIQMTLLHIPGEVIIGNTLT”, the protein production entry is given as “failed”.

With “YLDLWQTQDAKIRAKLAAVFQAEQNLNEAAIAYCLARALPEETAIFFANSMVVRYAEFFWQLNDQQILPYFNRGANGIDGTLSTALGIAENHSPAVLLTGDLALLHDINGFLTLSKFTGSLTIIVINNQGGGIFEMLPIAEEKDIFEDYFATPQTVEFSKVCDLYGIEYQAIQTKADLMQTCAILPPRGVRLLEVKTNRNQAMTWLKDLFQ”, the protein production entry is “failed”.

For “YLKDLSLLISNDKQTILYAPTWKGNSVSKVKNDVFQIISDMNYLEEKIGSDYNVLIKVHPFLYSEASKVSELKGKLIPDFIDTNQLLSTVDILITDYSSIFFDFLVTDRPILFYMWDADDYNKQRGKYINNEDLPGPVLYNVRELVEAIGNIHQVKSEFQTNYEKNKVKFTNHDDGNVTKRVVEKIFK”, the protein production result was “failed”.

As for “YNFSFLSPQGLSFASQGPSAPFWSVFTPRVIGTAVARYNFAARDMRELSLREGDVVRIYSRIGGDQGWWKGETNGRIGWFPSTYVEEEGIQ”, the protein production entry is “failed”.

As to “YRALYPFEARNHDEMSFNSGDIIQVDEKTVGEPGWLYGSFQGNFGWFPCNYVEKMPSSENEKAVSPKKALLPPTVSLSAT”, the protein production result is on record as “not failed”.

With “YTFIGNSPVPKSYSLSEMRDAFIKFFEKRGHKFLKPYPVVPRWREDVLLVNASIYDFQPHVTSGIVRPPGNPIVMSQPSIRMNDVDLVGITGRHLTSFEMLCHDSFNTKDKTVYWKEETVHYCYDFLTEGLGIDGKLISFKEKPWSGGGNAGNALEVFVRGLEVATLVFMDMKEDPNGPYEIDGIRYSKMDMRIVDTGYGLERLTWLSQGTPTVYQAIYPDIIQHVMKNSSVSDIDEEFLSEVVKASVMKEP”, the protein production entry is given as “failed”.

Consider “YTISEVVAFTGLTAHTLRWYERIGLMPHIDRSHTGQRRYSNRDLDWLAFVGKLRLTGMPVADMVRYAEMVREGDGTYTQRYEILESTRRDVLARIAELQDTLAVLDHKISFYADAGRALTSERSR”, for which the protein production entry was “failed”.

For the sequence “YTVEPVQDGERSVTLRRAGGTPLVAAMYHLPAAGSPDFVGLDLAATILADTPSGRLYHALVPTKLASGVFGFTMDQLDPGLAMFGAQLQPGMDQDKALQTLTATLESLSSKPFSQEELERARSKWLTAWQQTYADPEKVGVALSEAIASGDWRLFFLQRDRVRDAKLDDVQRAAVAYLVRSNRTEGRYIPTEKPQRAPLAQRADLAAV”, the protein production result is listed as “not failed”.

For “YYFKEYHLPYPKGVIFSGNIPPCFYHKSDPPLHLLPDKIFLEEVSKLGGIPGKIIKEKQFVEYFVPIIKNDFKLIENYYFQQKQEKFPVKSLICSGKDDKFRVKDLVQWENYFIDKCSISLFKGGHFYIDDNIASLCNQIKDFIY”, the protein production entry was “failed”.

Take “YYLIVSQLLGDTASVKLLVPPGANPHLFSLKPSDAKTLEEADLIVANGLGLEPYLEKYREKTVFVSDFIPALLLIDDNPHIWLDPFFLKYYIVPGLYQVLIEKFPEKQSEIKQKAEEIVSGLDTVIRDSFKALLPYTGKTVVMAHPSFTYFFKEFGLELITLSSGHEHSTSFSTIKEILRKKEQIVALFREPQQPAEILSSLEKELRMKSFVLDPLGVNGEKTIVELLRKNLSVIQEALK”: the protein production result was “not failed”.

The values are drawn from a protein production outcome set (Wang et al. 2014).
